Assay results from patent US20090092640A1 (UNIVERSITY OF CHICAGO, published 2009).

Biological target: T1, mutant murine LIGHT (a.a. 79-82, EKLI, deleted), expressed on the cell surface (murine, UniProt Q9QYH9 1-239)
T1 construct: The deletion of a.a; 79-82 is written as two ranges of the natural protein; also called mutant LIGHT; LIGHT^m
T1 sequence: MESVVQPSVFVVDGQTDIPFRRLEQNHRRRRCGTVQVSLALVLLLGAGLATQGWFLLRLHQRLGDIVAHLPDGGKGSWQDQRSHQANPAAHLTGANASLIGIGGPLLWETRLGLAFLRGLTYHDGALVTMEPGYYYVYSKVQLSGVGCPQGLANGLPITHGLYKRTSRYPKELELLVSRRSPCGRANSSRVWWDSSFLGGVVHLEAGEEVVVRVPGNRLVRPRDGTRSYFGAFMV
Test: flow cytometry and fluorescence microscopy, 293 cells expressing mutant murine LIGHT, stained with murine LTbR-Ig and a labelled anti-Ig
Description: 293 cells, a human kidney cell line, are commonly and easily used for transient expression of gene at relative high level of gene. 293 cells were seeded in 6 well plate and transfected with 2 μg DNA of pAdCMVmLIGHT (wild type murine LIGHT), pAdCMVmmLIGHT (mutant murine LIGHT) or pAdCMVcommLIGHT (codon optimized mutant murine LIGHT by GNENART, Berlin, Germany). Codon modification is to optimize gene codon to allow higher expression of protein without changing protein sequences. Transfection was performed using Lipofectmin 2000 reagent. 48 hours after transfection, cells were detached and incubated with recombinant mLTbR-huFc protein (10 μg/ml) followed by staining with PE conjugated Donkey anti-human IgG antisera. Cells were washed and analyzed by flowcytometry (BD FACSArray Bioanalyzer). Transfection were carried out in triplicates and only one representative result is shown. […] Cells were also examined visually by fluorescent microscopy. Representative results are shown in lower panel. (see FIG. 18). High expression of LIGHT is required to have stronger response. However, protease digestion of LIGHT often reduces its stability on cell surface.

B1: recombinant mLTbR-huFc protein (Fc fusion, mouse, UniProt P50284 31-223, looked up)
chain: QLVPPYRIENQTCWDQDKEYYEPMHDVCCSRCPPGEFVFAVCSRSQDTVCKTCPHNSYNEHWNHLSTCQLCRPCDIVLGFEEVAPCTSDRKAECRCQPGMSCVYLDNECVHCEEERLVLCQPGTEAEVTDEIMDTDVNCVPCKPGHFQNTSSPRARCQPHTRCEIQGLVEAAPGTSYSDTICKNPPEPGAMLL
notes: also called mouse LTbR-Ig; murine LTbR-Ig; not shown: human Fc
**Q.** Does B1 bind?
**A.** binds
